Results taken from patent US20090041783A1 (MOCHIDA PHARMACEUTICAL, published 2009).

Key:
[1] = target: T1, hGPVI-mL3-hFc (human (loop 3 from mouse)); assay: competition ELISA on hGPVI-hFc plate; soluble hGPVI-mL3-hFc as competitor
T1 construct: also called hGPVI-hFc-mL3
Experimental: (§1) To the plate, wherein hGPVI-hFc has been immobilized at 4 μg/mL, a mixture of peroxidase-labeled F1232-37-2 or cF1232-37-2 by the method described in EXAMPLE 14, and hGPVI-hFc, mGPVI-hFc, hGPVI-mL3-hFc, wherein these were prepared in EXAMPLE 7, or hGPVI-K59E-hFc (a fusion protein consisting of one amino acid mutated human GPVI extracellular region, wherein lysine at 59 of human GPVI is substituted for glutamic acid, and human Fc), which has been prepared by the same method as that of EXAMPLE 1 and diluted with 0.1% BSA/PBS was added, and the plate was incubated at 37° C. for one hour. After incubation, the mixture was developed using TMB solution, and absorbance at 450 nm was measured.

[2] = target: T2, hGPVI-K59E-hFc (human); assay: competition ELISA on hGPVI-hFc plate; soluble hGPVI-K59E-hFc as competitor
T2 construct: Fusion of human GPVI extracellular region with lysine at 59 of human GPVI substituted for glutamic acid, and human Fc
Experimental: as §1

[3] = target: T3, human GPVI extracellular region-human Fc fusion protein (hGPVI-hFc) (human); assay: competition ELISA on immobilised hGPVI-hFc: unlabelled antibody against labelled cF1232-37-2/COS
T3 construct: Expressed in COS-1, purified on Protein A; also called GPVI-HHH-hFc; hGPVIHHH-hFc
Experimental: as §1
To confirm the reactivity of cF1232-37-2/CHO, using binding ability to hGPVI-hFc as an index, the competitive test with cF1232-37-2 prepared by transient gene expression system with COS cells was performed. The measurement method was in accordance with the method described in 17-3 of EXAMPLE 17. Using hGPVI-hFc as an immobilized protein, a competitive activity to labeled cF1232-37-2/COS was confirmed when unlabeled cF1232-37-2/CHO or cF1232-37-2/COS was added at a variety of concentration. It was confirmed that the reactivity of cF1232-37-2/CHO is equivalent to that of cF1232-37-2/COS.

[4] = target: T3, human GPVI extracellular region-human …; assay: SPR (BIACORE 3000), hGPVI-hFc on CM5 chip, 0-800 nM analyte, 1:1 binding fit
Experimental: (§2) Dissociation constant for F1232-37-2 (whole antibody) prepared in EXAMPLE 2, and F(ab′)2 and Fab prepared in 22-1 and 21-2 was measured with Protein Interaction Analyzer BIACORE 3000 (BIACORE). That is, to sensorchip CM5 (BIACORE) hGPVI-hFc prepared in EXAMPLE 1 was bound according to the manual. Then a series of dilution from 0 to 800 nM of each antibody was prepared with HBS-EP buffer (BIACORE) and analyzed with BIACORE 3000. After completion of antibody binding, chip was regenerated with glycine buffer (pH 1.5) (BIACORE). Regarding the results of whole antibody and F(ab′)₂, evaluation software Bivalent analyte (BIACORE) was used for analysis; 1:1 Binding for Fab analysis. Then the dissociation constant was calculated. As a result, dissociation constant of F1232-37-2 F(ab′)2 and Fab was about 0.7 and 0.6, respectively, when that of whole antibody defined as one.

[5] = target: T3, human GPVI extracellular region-human …; assay: ELISA on immobilised hGPVI-hFc (GPVI antigen binding assay of Example 31)
[6] = target: T3, human GPVI extracellular region-human …; assay: SPR (BIACORE 3000), hGPVI-hFc on CM5 chip, 0-800 nM analyte, bivalent analyte fit
Experimental: as §2

[7] = target: T3, human GPVI extracellular region-human …; assay: SPR (BIACORE3000), GPVI-Fc on CM5 chip, antibody 1.25-40 nM as analyte, bivalent analyte fit
Experimental: (§3) Dissociation constant for the anti-GPVI monoclonal antibody prepared in EXAMPLE 2 was measured using protein interaction analyzer BIACORE3000 (BIACORE). That is, to sensor chip, CM5 chip (BIACORE), GPVI substitution mutant (hGPVIHHH-hFc and FFH-hFc) that is prepared in EXAMPLE 1 was linked according to the manual. Then each antibody was diluted with HBS-EP buffer solution (BIACORE) to prepare a series of diluted solution from 1.25 to 40 nM, and analyzed with BIACORE3000. Every each antibody bound chip, the chip was regenerated with glycine buffer solution at pH1.5. The obtained result was analyzed with Bivalent analyte, the evaluation software (BIACORE) to calculate dissociation constant. It was shown that each anti-GPVI monoclonal antibody has a sufficient affinity to GPVI-HHH-hFc.

[8] = target: T4, cynomolgus monkey D1D2-human D3 chimeric GPVI-human Fc fusion protein (GPVI-FFH-hFc) (cynomolgus monkey (D1, D2) and human …); assay: as above
T4 construct: also called Monkey GPVI
Experimental: as §3

[9] = target: T3, human GPVI extracellular region-human …; assay: ELISA on immobilised hGPVI-hFc, peroxidase-labelled anti-mouse immunoglobulin antibody
Experimental: Binding activity to the antigen was detected by ELISA. To each well of immunoplate immobilized with hGPVI-hFc (prepared by the method described in EXAMPLE 2 and the like), F1232-37-2 antibody and F1232-37-2 PEGylated antibody, wherein both antibodies had been adjusted to the same concentration, was added and the plate was incubated at 37° C. for one hour. The well was washed with saline containing 0.05% Tween20. Then 50 μL of peroxidase-labeled anti-mouse immunoglobulin antibody (DAKO, P260), which had been diluted by 1000-fold with 10% rabbit serum-containing D-PBS, was added to each well. After incubation at 37° C. for one hour, coloring reaction by the TMB substrate was done to measure an absorbance at 450 nm with plate spectro-photometer (Molecular Devices, Wako). As a result, it was confirmed that both F1232-37-2 antibody and PEGylated F1232-37-2 antibody have almost equivalent binding activity.

[10] = target: T3, human GPVI extracellular region-human …; assay: blocking ELISA: binding of hGPVI-hFc to immobilised collagen in the presence of the antibody (panel Comparsion of mouse anti-GPVI monoclonal antibodies)
[11] = target: T3, human GPVI extracellular region-human …; assay: competition ELISA on immobilised hGPVI-hFc: unlabelled antibody against the peroxidase-labelled mouse antibody of the panel titled F1232-10-2 competition assay (the text, paragraph 248, names F1232-10-1); x axis relative amount to labeled Ab (fold)
Experimental: Next, by using the peroxidase-labeled antibody, the competitive test for a variety of purified antibody was performed. That is, 25 μL of the above labeled antibody and 25 μL of each purified antibody were added to well of hGP-hFc-immobilized plate. After incubation at 37° C. for one hour, the well was washed five times with the saline containing 0.05% Tween20, and the reaction mixture was developed with TMB solution (BioFix). After incubation at room temperature for 10 minutes, the reaction was terminated with 0.5 M sulfuric acid solution and an absorbance at 450 nm was measured with the plate spectrophotometer (Multi-Scan JX, Dainippon Pharmaceutical).
To compare an antigen binding property of mouse/human chimeric antibody with that of the corresponding mouse monoclonal antibody, in the same method as that of EXAMPLE 14, peroxidase-labeled F1232-37-2, F1232-18-3, F1232-43-3 and F1232-10-1 were prepared. […] Further, an inhibiting activity of each antibody for binding of GPVI to collagen was measured according to the method described in EXAMPLE 2 or EXAMPLE 14. […]

T3 sequence (chain, as listed by the source limits assumed): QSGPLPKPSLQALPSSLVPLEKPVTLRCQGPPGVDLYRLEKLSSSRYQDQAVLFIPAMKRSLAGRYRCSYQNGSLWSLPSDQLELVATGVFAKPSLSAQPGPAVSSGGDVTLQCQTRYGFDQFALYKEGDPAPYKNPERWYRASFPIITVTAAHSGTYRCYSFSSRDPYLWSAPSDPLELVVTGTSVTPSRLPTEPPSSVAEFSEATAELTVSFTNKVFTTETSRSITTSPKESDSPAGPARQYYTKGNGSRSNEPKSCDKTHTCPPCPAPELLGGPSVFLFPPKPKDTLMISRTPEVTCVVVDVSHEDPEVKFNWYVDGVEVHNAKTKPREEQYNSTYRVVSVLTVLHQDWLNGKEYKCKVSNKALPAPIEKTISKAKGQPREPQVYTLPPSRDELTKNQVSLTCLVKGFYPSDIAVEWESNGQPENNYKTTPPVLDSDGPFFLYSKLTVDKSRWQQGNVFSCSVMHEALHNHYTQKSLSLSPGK
T2 sequence (chain, as listed by the source K59E K59E limits assumed): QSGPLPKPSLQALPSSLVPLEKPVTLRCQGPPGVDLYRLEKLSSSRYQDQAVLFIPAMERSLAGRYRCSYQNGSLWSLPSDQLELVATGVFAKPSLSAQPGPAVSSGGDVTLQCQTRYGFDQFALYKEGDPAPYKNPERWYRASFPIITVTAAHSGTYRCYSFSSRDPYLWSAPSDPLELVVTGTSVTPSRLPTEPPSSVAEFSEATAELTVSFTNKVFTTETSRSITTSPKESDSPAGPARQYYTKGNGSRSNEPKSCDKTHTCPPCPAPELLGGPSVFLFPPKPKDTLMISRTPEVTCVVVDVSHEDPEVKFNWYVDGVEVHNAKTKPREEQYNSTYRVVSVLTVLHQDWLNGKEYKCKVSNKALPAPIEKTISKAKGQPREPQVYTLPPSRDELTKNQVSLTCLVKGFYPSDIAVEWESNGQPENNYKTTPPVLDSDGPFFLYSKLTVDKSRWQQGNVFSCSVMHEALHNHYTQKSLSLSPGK
T1 sequence (chain, as listed by the source limits assumed): as the sequence (chain, as listed by the source K59E K59E limits assumed) above, with G33D, E59K counted along it
T4 sequence (chain, as listed by the source mutant limits assumed): as the sequence (chain, as listed by the source K59E K59E limits assumed) above, with S2R, E59K, S61H, L78P, R166G, V181M, P442S counted along it

B1: cF1232-37-2 (mouse/human chimeric antibody of F1232-37-2) (antibody, human IgG4, V domains shown)
VH: VQLQQSGPELVRPGESVKISCKGSGYTFTDYAIHWVKLSHAKSLEWIGVISIYYDDTNYNQKFKGKATMTVDKSSSTAYLELARLTSEDSAIYYCARRRDSSGPYAMDYWGQGTSVTVSS
VL: DIVLTQSPASLAVSLGQRATISCRASESVDSYGNSFMHWYQQKPGQPPKLLIYRASNLESGIPARFSGSGSRTDFTLTINPVEADDVATYYCQQSNEDPYTFGGGTKLEIKR
notes: Mouse V regions of F1232-37-2 with human IgG4 (Cgamma4) and human kappa constant regions; plasmids pTK-2510 and pTK-2511; made in COS-1 (/COS) and in CHO DXB11 (/CHO); also called cF1232-37-2/COS; cF1232-37-2/CHO
Q: What does the source list for B1?
A: binding result [1]: binds; binding result [2]: binds; IC50 (read off the curve) [3]: ~1 µg/mL

B2: F1232-37-2 Fab (Fab, V domains shown)
VH: VQLQQSGPELVRPGESVKISCKGSGYTFTDYAIHWVKLSHAKSLEWIGVISIYYDDTNYNQKFKGKATMTVDKSSSTAYLELARLTSEDSAIYYCARRRDSSGPYAMDYWGQGTSVTVSS
VL: DIVLTQSPASLAVSLGQRATISCRASESVDSYGNSFMHWYQQKPGQPPKLLIYRASNLESGIPARFSGSGSRTDFTLTINPVEADDVATYYCQQSNEDPYTFGGGTKLEIKR
notes: Fab made from mouse F1232-37-2 with papain; also called F1232-37-2 Fab antibody
Q: For B2, which “dissociation constant relative to that of the whole antibody (defined as one)” value [4] is on record?
A: ~0.6 fold of whole F1232-37-2

Q: And the “EC50 (read off the curve)” value [5]?
A: ~0.3 µg/mL

B3: F1232-37-2 F(ab')2 (other)
VH: VQLQQSGPELVRPGESVKISCKGSGYTFTDYAIHWVKLSHAKSLEWIGVISIYYDDTNYNQKFKGKATMTVDKSSSTAYLELARLTSEDSAIYYCARRRDSSGPYAMDYWGQGTSVTVSS
VL: DIVLTQSPASLAVSLGQRATISCRASESVDSYGNSFMHWYQQKPGQPPKLLIYRASNLESGIPARFSGSGSRTDFTLTINPVEADDVATYYCQQSNEDPYTFGGGTKLEIKRADAA
notes: F(ab')2 fragment made from mouse F1232-37-2 with Lysyl Endopeptidase; also called mouse monoclonal antibody F1232-37-2 F(ab')2
Q: Which “dissociation constant relative to that of the whole antibody (defined as one)” value [6] does the source give for B3 here?
A: ~0.7 fold of whole F1232-37-2

B4: F1232-37-2 (antibody, V domains shown)
VH: VQLQQSGPELVRPGESVKISCKGSGYTFTDYAIHWVKLSHAKSLEWIGVISIYYDDTNYNQKFKGKATMTVDKSSSTAYLELARLTSEDSAIYYCARRRDSSGPYAMDYWGQGTSVTVSS
VL: DIVLTQSPASLAVSLGQRATISCRASESVDSYGNSFMHWYQQKPGQPPKLLIYRASNLESGIPARFSGSGSRTDFTLTINPVEADDVATYYCQQSNEDPYTFGGGTKLEIKR
notes: Mouse hybridoma monoclonal antibody; also called F1232-37-2 antibody; F1232-37-2 whole antibody
Q: Does B4 bind [1]?
A: binds

Q: Does B4 bind [2]?
A: binds

Q: And the Kd [7]?
A: 0.403 nM

Q: And the Kd [8]?
A: 1 nM

Q: And the “EC50 (read off the curve)” value [9]?
A: ~0.02 µg/mL

B5: F1232-10-1 (antibody, V domains shown)
VH: VTLKESGPGILQPSQTLSLTCSFSGFSLSTYGIGVGWIRQPSGKGLEWLAHIWWNDDKYYNTALKSRLTISKDTSNNQVFLKIASVDTADTATYYCARVYYYGSSFDYWGQGTTLTVSS
VL: DIQMTQSPASLSASVGETVTITCRASENIFSILAWYQQKQGKSPQLLVYAATNLADGVPSRFSGSGSGTQFSLKINSLQPEDFGSYYCQHFYGTPWTFGGGTKLEIKR
notes: Mouse hybridoma monoclonal antibody
Q: Does B5 bind [10]?
A: binds

B6: cF1232-10-1 (antibody, human IgG4, V domains shown)
VH: VTLKESGPGILQPSQTLSLTCSFSGFSLSTYGIGVGWIRQPSGKGLEWLAHIWWNDDKYYNTALKSRLTISKDTSNNQVFLKIASVDTADTATYYCARVYYYGSSFDYWGQGTTLTVSS
VL: DIQMTQSPASLSASVGETVTITCRASENIFSILAWYQQKQGKSPQLLVYAATNLADGVPSRFSGSGSGTQFSLKINSLQPEDFGSYYCQHFYGTPWTFGGGTKLEIKR
notes: Mouse/human chimeric antibody of F1232-10-1; human IgG4 and kappa constant regions; COS-1
Q: Does B6 bind [11]?
A: binds
